The text below walks through data of patent US20080020978A1 (Amgen, published 2008).

Where a chain is given by its changes, count along the chain named. Square brackets hold non-standard residues; d marks the D form. octavalent 20 kDa PEG = 20 kDa PEG with eight arms, each linked to one peptide copy through Cys; tetravalent 20 kDa PEG = 20 kDa PEG with four arms, each linked to one peptide copy through Cys; trivalent 20 kDa PEG = 20 kDa PEG with three arms, each linked to one peptide copy through Cys; hArg = N=C(N)NCCCC[C@H](N)C(=O)O; Cit = NC(=O)NCCC[C@H](N)C(=O)O; 3IPA = not defined here; Aib = CC(C)(N)C(=O)O

Test [1] deals with T1, CGRP1 receptor (CRLR/RAMP1 complex) of human neuroblastoma SK-N-MC cells (human, UniProt Q16602 23-461; O60894 27-148). As to the kind of experiment: cell-based or functional assay.
The target in test [2] is T1, CGRP1 receptor (CRLR/RAMP1 complex) of …. Nature of the test: cell-based or functional assay. The source holds these as a separate data set.

T1 sequence (Q16602 23-461, chain 1 of 2): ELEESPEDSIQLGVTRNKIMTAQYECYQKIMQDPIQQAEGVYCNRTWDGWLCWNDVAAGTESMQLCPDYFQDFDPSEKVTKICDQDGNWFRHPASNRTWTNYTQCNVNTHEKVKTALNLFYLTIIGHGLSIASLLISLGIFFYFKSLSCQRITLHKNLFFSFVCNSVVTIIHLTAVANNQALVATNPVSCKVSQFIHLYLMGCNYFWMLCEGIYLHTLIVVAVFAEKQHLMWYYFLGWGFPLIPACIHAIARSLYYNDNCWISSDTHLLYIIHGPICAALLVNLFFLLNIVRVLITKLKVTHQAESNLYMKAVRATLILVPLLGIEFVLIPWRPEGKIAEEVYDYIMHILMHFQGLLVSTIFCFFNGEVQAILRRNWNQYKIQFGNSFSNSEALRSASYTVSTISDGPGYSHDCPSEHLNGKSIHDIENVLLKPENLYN
T1 sequence (O60894 27-148, chain 2 of 2): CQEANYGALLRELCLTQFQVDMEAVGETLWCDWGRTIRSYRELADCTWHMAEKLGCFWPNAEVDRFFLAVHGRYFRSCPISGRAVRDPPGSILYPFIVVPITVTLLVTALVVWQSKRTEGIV

B1: SEQ ID NO 765 (peptide)
peptide: Ac-WVTHRLAGLLSRSGGVVRC(5 kDa MeO‑PEG)NFVPTDVGPFAF-NH2
B1: the “IC50” value in test [1] came out at 2.52 nM.

B2: SEQ ID NO 769 (peptide)
peptide: Ac-WVTHRLAGLLSRSGGVVRC(40 kDa branched MeO‑PEG2)NFVPTDVGPFAF-NH2
On to B2, for which the half-maximal inhibitory concentration (IC50) in test [1] is 33.4 nM.

B3: SEQ ID NO 764 (peptide)
peptide: Ac-WVTHRLAGLLSRSGGVVRCNFVPTDVGPFAF-NH2
In the case of B3, the 50% inhibitory concentration (IC50) in test [1] was 0.91 nM. Against the preceding molecule, the IC50 is about 37-fold lower.

B4: SEQ ID NO 770 (peptide)
peptide: Ac-WVTHRLAGLLSRSGGVVRC(20 kDa branched MeO‑PEG2)NFVPTDVGPFAF-NH2
As for B4, the “IC50” value in test [1] worked out at 0.17 nM.

B5: SEQ ID NO 885 (peptide)
peptide: Ac-WVTHQLAGLLSQSGGVV[hArg]KNFVPTDVGPFAF-NH2
SMILES: CC(=O)N[C@@H](Cc1c[nH]c2ccccc12)C(=O)N[C@H](C(=O)N[C@H](C(=O)N[C@@H](Cc1c[nH]cn1)C(=O)N[C@@H](CCC(N)=O)C(=O)N[C@@H](CC(C)C)C(=O)N[C@@H](C)C(=O)NCC(=O)N[C@@H](CC(C)C)C(=O)N[C@@H](CC(C)C)C(=O)N[C@@H](CO)C(=O)N[C@@H](CCC(N)=O)C(=O)N[C@@H](CO)C(=O)NCC(=O)NCC(=O)N[C@H](C(=O)N[C@H](C(=O)N[C@@H](CCCCNC(=N)N)C(=O)N[C@@H](CCCCN)C(=O)N[C@@H](CC(N)=O)C(=O)N[C@@H](Cc1ccccc1)C(=O)N[C@H](C(=O)N1CCC[C@H]1C(=O)N[C@H](C(=O)N[C@@H](CC(=O)O)C(=O)N[C@H](C(=O)NCC(=O)N1CCC[C@H]1C(=O)N[C@@H](Cc1ccccc1)C(=O)N[C@@H](C)C(=O)N[C@@H](Cc1ccccc1)C(N)=O)C(C)C)[C@@H](C)O)C(C)C)C(C)C)C(C)C)[C@@H](C)O)C(C)C
In the case of B5, in test [2], the “Peptide IC50” value turned out to be 1.42 nM.

B6: SEQ ID NO 775 (peptide)
peptide: Ac-WVTHRLAGLLSQSGGVVRC(20 kDa MeO‑PEG)NFVPTDVGPFAF-NH2
In the case of B6, 4.69 nM corresponded to half-maximal inhibition in test [1] (IC50).

B7: PEG-peptide of SEQ ID NO 884 (peptide)
peptide: Ac-WVTHQLAGLLS[Cit]SGGVV[hArg]KNFVPTDVGPFAF-NH2
modifications: also: PEG-conjugated, in most cases at Lys25
B7: the “PEG-peptide IC50” value in test [2] was found to be 8.87 nM.

B8: PEG-peptide of SEQ ID NO 885 (peptide)
peptide: Ac-WVTHQLAGLLSQSGGVV[hArg]KNFVPTDVGPFAF-NH2
modifications: also: PEG-conjugated, in most cases at Lys25
Regarding B8, the “PEG-peptide IC50” value in test [2] turned out to be 12.4 nM.

B9: SEQ ID NO 781 (peptide)
peptide: Ac-WVTHRLAGLLSRSGGVVRC(trivalent 20 kDa PEG)NFVPTDVGPFAF-NH2
modifications: also: trivalent PEG joins three peptide copies
As to B9, the half-maximal inhibitory concentration (IC50) in test [1] turned out to be 0.19 nM.

B10: SEQ ID NO 776 (peptide)
peptide: Ac-WVTHRLAGLLS[dR]SGGVVRCNFVPTDVGPFAF-NH2
SMILES: CC(=O)N[C@@H](Cc1c[nH]c2ccccc12)C(=O)N[C@H](C(=O)N[C@H](C(=O)N[C@@H](Cc1c[nH]cn1)C(=O)N[C@@H](CCCNC(=N)N)C(=O)N[C@@H](CC(C)C)C(=O)N[C@@H](C)C(=O)NCC(=O)N[C@@H](CC(C)C)C(=O)N[C@@H](CC(C)C)C(=O)N[C@@H](CO)C(=O)N[C@H](CCCNC(=N)N)C(=O)N[C@@H](CO)C(=O)NCC(=O)NCC(=O)N[C@H](C(=O)N[C@H](C(=O)N[C@@H](CCCNC(=N)N)C(=O)N[C@@H](CS)C(=O)N[C@@H](CC(N)=O)C(=O)N[C@@H](Cc1ccccc1)C(=O)N[C@H](C(=O)N1CCC[C@H]1C(=O)N[C@H](C(=O)N[C@@H](CC(=O)O)C(=O)N[C@H](C(=O)NCC(=O)N1CCC[C@H]1C(=O)N[C@@H](Cc1ccccc1)C(=O)N[C@@H](C)C(=O)N[C@@H](Cc1ccccc1)C(N)=O)C(C)C)[C@@H](C)O)C(C)C)C(C)C)C(C)C)[C@@H](C)O)C(C)C
B10: half-maximal inhibition in test [1] (IC50) required 0.59 nM.

B11: SEQ ID NO 879 (peptide)
peptide: Ac-WVTHRLAGLLSRSGGVVRKNFV[Aib]TDVGPFAF-NH2
SMILES: CC(=O)N[C@@H](Cc1c[nH]c2ccccc12)C(=O)N[C@H](C(=O)N[C@H](C(=O)N[C@@H](Cc1c[nH]cn1)C(=O)N[C@@H](CCCNC(=N)N)C(=O)N[C@@H](CC(C)C)C(=O)N[C@@H](C)C(=O)NCC(=O)N[C@@H](CC(C)C)C(=O)N[C@@H](CC(C)C)C(=O)N[C@@H](CO)C(=O)N[C@@H](CCCNC(=N)N)C(=O)N[C@@H](CO)C(=O)NCC(=O)NCC(=O)N[C@H](C(=O)N[C@H](C(=O)N[C@@H](CCCNC(=N)N)C(=O)N[C@@H](CCCCN)C(=O)N[C@@H](CC(N)=O)C(=O)N[C@@H](Cc1ccccc1)C(=O)N[C@H](C(=O)NC(C)(C)C(=O)N[C@H](C(=O)N[C@@H](CC(=O)O)C(=O)N[C@H](C(=O)NCC(=O)N1CCC[C@H]1C(=O)N[C@@H](Cc1ccccc1)C(=O)N[C@@H](C)C(=O)N[C@@H](Cc1ccccc1)C(N)=O)C(C)C)[C@@H](C)O)C(C)C)C(C)C)C(C)C)[C@@H](C)O)C(C)C
For B11, in test [2], the “Peptide IC50” value worked out at 4.2 nM.

B12: SEQ ID NO 782 (peptide)
peptide: Ac-WVTHRLAGLLSRSGGVVRC(tetravalent 20 kDa PEG)NFVPTDVGPFAF-NH2
modifications: also: tetravalent PEG joins four peptide copies
On to B12, for which the “IC50” value in test [1] stood at 0.08 nM.

B13: SEQ ID NO 777 (peptide)
peptide: Ac-WVTHRLAGLLS[dR]SGGVVRC(MeO‑PEG 20 kDa)NFVPTDVGPFAF-NH2
Consider B13, for which the concentration for half-maximal inhibition (IC50) in test [1] came to 19.4 nM.

B14: SEQ ID NO 778 (peptide)
peptide: {Ac-3IPA}-VTHRLAGLLSRSGGVVRCNFVPTDVGPFAF-NH2
modifications: reading uncertain; also: places 3IPA at position 1, printed as Ac-[3IPA]-VTHRLAGLLSRSGGVVRCNFVPTDVGPFAF-amide
For B14, in test [1], half-maximal inhibition (IC50) was put at 0.35 nM. Compared with the last molecule, the IC50 is about 55-fold lower.

B15: SEQ ID NO 767 (peptide)
peptide: Ac-WVTHRLAGLLSRSGGVVRC(30 kDa MeO‑PEG)NFVPTDVGPFAF-NH2
As to B15, the half-maximal inhibitory concentration (IC50) in test [1] is 7.86 nM.

B16: SEQ ID NO 771 (peptide)
peptide: Ac-WVTHRLAGLLSRSGGVVRC(20 kDa NEM‑PEG)NFVPTDVGPFAF-NH2
For B16, the half-inhibitory concentration (IC50) in test [1] is 0.3 nM.

B17: SEQ ID NO 772 (peptide)
peptide: Ac-WVTHRLAGLLSASGGVVRCNFVPTDVGPFAF-NH2
As for B17, in test [1], the half-inhibitory concentration (IC50) is 2.75 nM.

B18: SEQ ID NO 784 (peptide)
peptide: WVTHXLAGLLSXSGGVVRKNFVPTDVGPFAF
modifications: Ac-WVTH[hArg]LAGLLS[hArg]SGGVVRKNFVPTDVGPFAF-amide
Take B18: half-maximal inhibition in test [1] (IC50) required 2.1 nM. This IC50 and that of the molecule before are within 1.5-fold of each other.

B19: SEQ ID NO 788 (peptide)
peptide: B18 peptide with X12R
modifications: Ac-WVTH[hArg]LAGLLSRSGGVVRKNFVPTDVGPFAF-amide
Regarding B19, half-maximal inhibition in test [1] (IC50) was put at 0.44 nM.

B20: SEQ ID NO 877 (peptide)
peptide: B18 peptide with P23X
modifications: Ac-WVTH[Cit]LAGLLS[Cit]SGGVVRKNFV[Hyp]TDVGPFAF-NH2
As to B20, the “Peptide IC50” value in test [2] turned out to be 1.81 nM.

B21: SEQ ID NO 785 (peptide)
peptide: B18 peptide
modifications: Ac-WVTH[hArg]LAGLLS[hArg]SGGVVRK^(20 kDa MeO-PEG)NFVPTDVGPFAF-amide
With B21, in test [1], inhibition was half-maximal at 0.37 nM (IC50).

B22: SEQ ID NO 797 (peptide)
peptide: B18 peptide with X5R
modifications: Ac-WVTHRLAGLLS[Cit]SGG VVRK^(20 kDa MeO-PEG)NFVPTDVGPFAF-amide
As to B22, inhibition in test [1] was half-maximal at 0.96 nM (IC50).

B23: SEQ ID NO 787 (peptide)
peptide: B18 peptide with X5R
modifications: Ac-WVTHRLAGLLS[hArg]SGGVVRK^(20 kDa MeO-PEG)NFVPTDVGPFAF-amide
As to B23, it took 0.33 nM to reach half-maximal inhibition in test [1] (IC50).

B24: PEG-peptide of SEQ ID NO 880 (peptide)
peptide: B18 peptide with R18X
modifications: Ac-WVTH[Cit]LAGLLS[hArg]SGGVV[hArg]KNFVPTDVGPFAF-NH2; PEG-conjugated (Table 2C: in most cases at Lys^25)
On to B24, for which the “PEG-peptide IC50” value in test [2] amounted to 2.06 nM.

B25: SEQ ID NO 786 (peptide)
peptide: B18 peptide with X5R
modifications: Ac-WVTHRLAGLLS[hArg]SGGVVRKNFVPTDVGPFAF-amide
As to B25, in test [1], the concentration for half-maximal inhibition (IC50) amounted to 0.57 nM. This counts as sub-nanomolar.

B26: SEQ ID NO 886 (peptide)
peptide: B18 peptide with R18X
modifications: Ac-WVTH[hCit]LAGLLS[hCit]SGGVV[hArg]KNFVPTDVGPFAF-NH2
On to B26, for which, in test [2], the “Peptide IC50” value turned out to be 4.96 nM.

B27: SEQ ID NO 789 (peptide)
peptide: B18 peptide with X12R
modifications: Ac-WVTH[hArg]LAGLLSRSGGVVRK^(20 kDa MeO-PEG)NFVPTDVGPFAF-amide
Consider B27, for which the midpoint of inhibition in test [1], the IC50, lay at 0.36 nM.

B28: SEQ ID NO 796 (peptide)
peptide: B18 peptide with X5R
modifications: Ac-WVTHRLAGLLS[Cit]SGG VVRKNFVPTDVGPFAF-amide
As to B28, in test [1], the “IC50” value stood at 0.58 nM.

B29: SEQ ID NO 790 (peptide)
peptide: B18 peptide
modifications: Ac-WVTH[Cit]LAGLLS[Cit]SGG VVRKNFVPTDVGPFAF-amide
Take B29: the half-maximal inhibitory concentration (IC50) in test [1] was found to be 1.7 nM.

B30: SEQ ID NO 768 (peptide)
peptide: Ac-WVTHRLAGLLSRSGGVVRC(20 kDa branched MeO‑PEG2)NFVPTDVGPFAF-NH2
For B30, inhibition in test [1] was half-maximal at 23.8 nM (IC50).

B31: SEQ ID NO 779 (peptide)
peptide: {Ac-3IPA}-VTHRLAGLLSRSGGVVRC(20 kDa MeO‑PEG)NFVPTDVGPFAF-NH2
modifications: reading uncertain; also: places 3IPA at position 1, printed as Ac-[3IPA]-VTHRLAGLLSRSGGVVRC^(20 kDa MeO-PEG)NFVPTDVGPFAF-amide
In the case of B31, in test [1], the midpoint of inhibition, the IC50, lay at 2.22 nM.

B32: SEQ ID NO 783 (peptide)
peptide: Ac-WVTHRLAGLLSRSGGVVRC(octavalent 20 kDa PEG)NFVPTDVGPFAF-NH2
modifications: also: eight peptides linked via Cys to one octavalent 20 kDa PEG
For the molecule B32, the “IC50” value in test [1] was found to be 1.4 nM.

B33: PEG-peptide of SEQ ID NO 883 (peptide)
peptide: Ac-WVTH[Cit]LAGLLSQSGGVV[hArg]KNFVPTDVGPFAF-NH2
modifications: also: PEG-conjugated, in most cases at Lys25
B33: the “PEG-peptide IC50” value in test [2] was 7.42 nM.

B34: SEQ ID NO 773 (peptide)
peptide: Ac-WVTHRLAGLLSASGGVVRC(20 kDa MeO‑PEG)NFVPTDVGPFAF-NH2
Consider B34, for which, in test [1], half-maximal inhibition (IC50) was put at 6.2 nM.
